Assay results as given in the FLAb antibody collection.
Residue numbers refer to the chain shown, from its start. “And” between values parts separate entries of the source, which are not always exact repeats. Equal values may be shown once.

Assay: patients with anti-drug antibodies; higher = more immunogenic

B1: unnamed (protein)
chain 1: EVQLVESGGGLVQPGGSLRLSCAASGFNFNDYFMNWVRQAPGKGLEWVAQMRNKNYQYGTYYAESLEGRFTISRDDSKNSLYLQMNSLKTEDTAVYYCARESYYGFTSYWGQGTLVTVSS
chain 2: DIQMTQSPSSLSASVGDRVTITCQASQDIGISLSWYQQKPGKAPKLLIYNANNLADGVPSRFSGSGSGTDFTLTISSLQPEDFATYYCLQHNSAPYTFGQGTKLEIK
  patients with anti-drug antibodies: 9.8%

B2: unnamed (protein)
chain 1: QVQLVQSGAEVKKPGSSVMVSCQASGGLLEDYIINWVRQAPGQGPEWMGGIIPVLGTVHYGPKFQGRVTITADESTDTAYMELSSLRSEDTAMYYCATETALVVSETYLPHYFDNWGQGTLVTVSS
chain 2: DIQMTQSPSSLSAAVGDRVTITCQASQDIVNYLNWYQQKPGKAPKLLIYVASNLETGVPSRFSGSGSGTDFSLTISSLQPEDVATYYCQQYDNLPLTFGGGTKVEIK
  patients with anti-drug antibodies: 28%

B3: unnamed (protein)
chain 1: QVQLQESGPGLVKPSQTLSLTCTVSGGSISSGDYYWSWIRQPPGKGLEWIGYIYYSGSTDYNPSLKSRVTMSVDTSKNQFSLKVNSVTAADTAVYYCARVSIFGVGTFDYWGQGTLVTVSS
chain 2: EIVMTQSPATLSLSPGERATLSCRASQSVSSYLAWYQQKPGQAPRLLIYDASNRATGIPARFSGSGSGTDFTLTISSLEPEDFAVYYCHQYGSTPLTFGGGTKAEIK
  patients with anti-drug antibodies: 4.1%

B4: unnamed (protein)
chain 1: QVQLVESGGGVVQPGRSLRLDCKASGITFSNSGMHWVRQAPGKGLEWVAVIWYDGSKRYYADSVKGRFTISRDNSKNTLFLQMNSLRAEDTAVYYCATNDDYWGQGTLVTVSS
chain 2: B3 chain 2 with M4L, H89Q, Y91S, G92S, S93N, T94W, L96R, G100Q, A104V
  patients with anti-drug antibodies: 7.7%

B5: unnamed (protein)
chain 1: QLQLQESGPGLVKPSETLSLTCTVSGGSINSSSYYWGWLRQSPGKGLEWIGSFFYTGSTYYNPSLRSRLTISVDTSKNQFSLMLSSVTAADTAVYYCARQSTYYYGSGNYYGWFDRWDQGTLVTVSS
chain 2: B3 chain 2 with M4L, H89Q, Y91R, G92S, S93N, T94W, L96P, T97A, G100Q, A104V
  patients with anti-drug antibodies: 3.5%

B6: unnamed (protein)
chain 1: EVQLVESGGGLVQPGRSLRLSCAASGFTFNDYAMHWVRQAPGKGLEWVSTISWNSGSIGYADSVKGRFTISRDNAKKSLYLQMNSLRAEDTALYYCAKDIQYGNYYYGMDVWGQGTTVTVSS
chain 2: B3 chain 2 with M4L, H89Q, Y91R, G92S, S93N, T94W, L96I, G100Q, K103R, A104L
  patients with anti-drug antibodies: 0%

B7: unnamed (protein)
chain 1: EVQLVESGGGLVQPGGSLRLSCAASGYTFTSYNMHWVRQAPGKGLEWVGAIYPGNGDTSYNQKFKGRFTISVDKSKNTLYLQMNSLRAEDTAVYYCARVVYYSNSYWYFDVWGQGTLVTVSS
chain 2: DIQMTQSPSSLSASVGDRVTITCRASSSVSYMHWYQQKPGKAPKPLIYAPSNLASGVPSRFSGSGSGTDFTLTISSLQPEDFATYYCQQWSFNPPTFGQGTKVEIK
  patients with anti-drug antibodies: 1%

B8: unnamed (protein)
chain 1: QVQLVQSGAEVKKPGASVKISCKASGYSFTAYYIHWVKQAPGQGLEWIGYISNYNRATNYNQKFKGRVTFTTDTSTSTAYMELRSLRSDDTAVYYCARDYDYDVGMDYWGQGTLVTVSS
chain 2: DIVMTQSPDSLAVSLGERATISCRASESVDNYGISFMKWFQQKPGQPPKLLIYAASNQGSGVPDRFSGSGSGTDFTLTISSLQAEDVAVYYCQQSKEVPWTFGGGTKVEIK
  patients with anti-drug antibodies: 29%

B9: unnamed (protein)
chain 1: QVQLVQSGAEVKKPGSSVKVSCKASGYAFSYSWINWVRQAPGQGLEWMGRIFPGDGDTDYNGKFKGRVTITADKSTSTAYMELSSLRSEDTAVYYCARNVFDGYWLVYWGQGTLVTVSS
chain 2: DIVMTQTPLSLPVTPGEPASISCRSSKSLLHSNGITYLYWYLQKPGQSPQLLIYQMSNLVSGVPDRFSGSGSGTDFTLKISRVEAEDVGVYYCAQNLELPYTFGGGTKVEIK
  patients with anti-drug antibodies: 6% and 6.6%

B10: unnamed (protein)
chain 1: QVQLVQSGAEVKKPGASVKVSCKASGFNIKDTYIHWVRQAPGQRLEWMGRIDPANGYTKYDPKFQGRVTITADTSASTAYMELSSLRSEDTAVYYCAREGYYGNYGVYAMDYWGQGTLVTVSS
chain 2: DIQMTQSPSSLSASVGDRVTITCKTSQDINKYMAWYQQTPGKAPRLLIHYTSALQPGIPSRFSGSGSGRDYTFTISSLQPEDIATYYCLQYDNLWTFGQGTKVEIK
  patients with anti-drug antibodies: 9%

B11: unnamed (protein)
chain 1: EVQLVQSGAEVKKPGESLKISCKGSGYIFTNYWIAWVRQMPGKGLESMGIIYPGDSDIRYSPSFQGQVTISADKSITTAYLQWSSLKASDTAMYYCARHDIEGFDYWGRGTLVTVSS
chain 2: EIVLTQSPGTLSLSPGERATLSCRASQSVSSSFFAWYQQKPGQAPRLLIYGASSRATGIPDRLSGSGSGTDFTLTITRLEPEDFAVYYCQQYDSSAITFGQGTRLEIK
  patients with anti-drug antibodies: 3.3%

B12: unnamed (protein)
chain 1: EVQLVQSGPGLVQPGGSVRISCAASGYTFTNYGMNWVKQAPGKGLEWMGWINTYTGESTYADSFKGRFTFSLDTSASAAYLQINSLRAEDTAVYYCARFAIKGDYWGQGTLLTVSS
chain 2: DIQMTQSPSSLSASVGDRVTITCRSTKSLLHSNGITYLYWYQQKPGKAPKLLIYQMSNLASGVPSRFSSSGSGTDFTLTISSLQPEDFATYYCAQNLEIPRTFGQGTKVELK
  patients with anti-drug antibodies: 40%

B13: unnamed (protein)
chain 1: EVQLVESGGGLVQPGGSLRLSCAASGYTFTSYWLHWVRQAPGKGLEWVGMIDPSNSDTRFNPNFKDRFTISADTSKNTAYLQMNSLRAEDTAVYYCATYRSYVTPLDYWGQGTLVTVSS
chain 2: DIQMTQSPSSLSASVGDRVTITCKSSQSLLYTSSQKNYLAWYQQKPGKAPKLLIYWASTRESGVPSRFSGSGSGTDFTLTISSLQPEDFATYYCQQYYAYPWTFGQGTKVEIK
  patients with anti-drug antibodies: 11.9%

B14: unnamed (protein)
chain 1: EVKLVESGGGLVQPGGSLRLSCATSGFTFTDYYMNWVRQPPGKALEWLGFIGNKANGYTTEYSASVKGRFTISRDKSQSILYLQMNTLRAEDSATYYCTRDRGLRFYFDYWGQGTTLTVSS
chain 2: QTVLSQSPAILSASPGEKVTMTCRASSSVTYIHWYQQKPGSSPKSWIYATSNLASGVPARFSGSGSGTSYSLTISRVEAEDAATYYCQHWSSKPPTFGGGTKLEIK
  patients with anti-drug antibodies: 0.5%

B15: unnamed (protein)
chain 1: EVQLVQSGAEVKKPGESLKISCKGSGRTFTSYNMHWVRQMPGKGLEWMGAIYPLTGDTSYNQKSKLQVTISADKSISTAYLQWSSLKASDTAMYYCARSTYVGGDWQFDVWGKGTTVTVSS
chain 2: EIVLTQSPGTLSLSPGERATLSCRASSSVPYIHWYQQKPGQAPRLLIYATSALASGIPDRFSGSGSGTDFTLTISRLEPEDFAVYYCQQWLSNPPTFGQGTKLEIK
  patients with anti-drug antibodies: 1%

B16: unnamed (protein)
chain 1: QVQLVQSGGGLVQAGGSLRLSCAASGGTFATSPMGWLRQAPGKGTEFVAAISPSGGDRIYADSVKGRFTISRDNAGYFIYLQMNSLKPEDTAVYYCAVRRRFDGTSYYTGDYDSWGQGTLVTVSS
chain 2: EIVLTQSPGTLSLSPGERATLSCRASQSVSSSYLAWYQQKPGQAPRLLIYDASSRATGIPDRFSGSGSGTDFTLTISRLEPEDFAVYYCQQYSYSPVTFGQGTKVEIK
  patients with anti-drug antibodies: 0%

B17: unnamed (protein)
chain 1: EVQLVESGGGLVKPGGSLKLSCAASGYTFTSYVMHWVRQAPGKGLEWIGYINPYNDGTKYNEKFQGRVTISSDKSISTAYMELSSLRSEDTAMYYCARGTYYYGTRVFDYWGQGTLVTVSS
chain 2: DIVMTQSPATLSLSPGERATLSCRSSKSLQNVNGNTYLYWFQQKPGQSPQLLIYRMSNLNSGVPDRFSGSGSGTEFTLTISSLEPEDFAVYYCMQHLEYPITFGAGTKLEIK
  patients with anti-drug antibodies: 17.5% and 1%

B18: unnamed (protein)
chain 1: QVQLQQSGPELKKPGASVKVSCKDSGYAFSSSWMNWVRQAPGQGLEWIGRIYPGDGDTNYNGKFQGRVTITADKSSSTAYMELSSLRSEDTAVYFCARSGLLRYAMDYWGQGTLVTVSS
chain 2: DIQMTQSPSSLSASVGDRVTITCRASQDIRNYLNWYQQKPGKAVKLLIYYTSRLLPGVPSRFSGSGSGTDYSLTISSQEQEDIGTYFCQQGNTLPWTFGQGTKVEIR
  patients with anti-drug antibodies: 2.5%

B19: unnamed (protein)
chain 1: QVQLQESGPGLVRPSQTLSLTCTASGYTFTDYVIHWVKQPPGRGLEWIGYINPYDDDTTYNQKFKGRVTMLVDTSSNTAYLRLSSVTAEDTAVYYCARRGNSYDGYFDYSMDYWGSGTPVTVSS
chain 2: DIQMTQSPSSLSASVGDRVTITCRASQNVGTAVAWLQQTPGKAPKLLIYSASNRYTGVPSRFSGSGSGTDYTFTISSLQPEDIATYYCQQYTNYPMYTFGQGTKVQIK
  patients with anti-drug antibodies: 4.5%
